Data published in patent publication US20250059559A1 (FLAGSHIP PIONEERING INNOVATIONS V, published 2025).

Legend:
[1] = molecular target: the molecule itself; experiment: self-assembly; negative-stain EM
[2] = molecular target: the molecule itself; experiment: self-assembly; heparin and SEC purification, EM
self-assembly; EM = molecular target: the molecule itself; experiment: self-assembly; EM

Row | Protein | binding result [1] | further results
1 | Ring 10 ORF1 fused to an N-terminal HIS6-tag (HIS-ORF1) (other, also called Ring 10 HIS-ORF1; not shown: N-terminal HIS6-tag) MPWWYRRRSYNPWRRRNWFRRPRKTIYRRYRRRRRWVRRKPFYKRKIKRLNIVEWQPKSIRKCRIKGMLCLFQTTEDRLSYNFDMYEESIIPEKLPGGGGFSIKNISLYALYQEHIHAHNIFTHTNTDRPLARYTGCSLKFYQSKDIDYVVTYSTSLPLRSSMGMYNSMQPSIHLMQQNKLIVPSKQTQKRRKPYIKKHISPPTQMKSQWYFQHNIANIPLLMIRTTALTLDNYYIGSRQLSTNVTIHTLNTTYIQNRDWGDRNKTYYCQTLGTQRYFLYGTHSTAQNINDIKLQELIPLTNTQDYVQGFDWTEKDKHNITTYKEFLTKGAGNPFHAEWITAQNPVIHTANSPTQIEQIYTASTTTFQNKKLTDLPTPGYIFITPTVSLRYNPYKDLAERNKCYFVRSKINAHGWDPEQHQELINSDLPQWLLLFGYPDYIKRTQNFALVDTNYILVDHCPYTNPEKTPFIPLSTSFIEGRSPYSPSDTHEPDEEDQNRWYPCYQYQQESINSICLSGPGTPKIPKGITAEAKVKYSFNFKWGGDLPPMSTITNPTDQPTYVVPNNFNETTSLQNPTTRPEHFLYSFDERRGQLTEKATKRLLKDWETKETSLLSTEYRFAEPTQTQAPQEDPSSEEEEESNLFERLLRQRTKQLQLKRRIIQTLKDLQKLE | binds | –
2 | full-length Ring 10 ORF1 (residues 1-672) (other, also called Ly1 ORF1; full-length ORF1) MPWWYRRRSYNPWRRRNWFRRPRKTIYRRYRRRRRWVRRKPFYKRKIKRLNIVEWQPKSIRKCRIKGMLCLFQTTEDRLSYNFDMYEESIIPEKLPGGGGFSIKNISLYALYQEHIHAHNIFTHTNTDRPLARYTGCSLKFYQSKDIDYVVTYSTSLPLRSSMGMYNSMQPSIHLMQQNKLIVPSKQTQKRRKPYIKKHISPPTQMKSQWYFQHNIANIPLLMIRTTALTLDNYYIGSRQLSTNVTIHTLNTTYIQNRDWGDRNKTYYCQTLGTQRYFLYGTHSTAQNINDIKLQELIPLTNTQDYVQGFDWTEKDKHNITTYKEFLTKGAGNPFHAEWITAQNPVIHTANSPTQIEQIYTASTTTFQNKKLTDLPTPGYIFITPTVSLRYNPYKDLAERNKCYFVRSKINAHGWDPEQHQELINSDLPQWLLLFGYPDYIKRTQNFALVDTNYILVDHCPYTNPEKTPFIPLSTSFIEGRSPYSPSDTHEPDEEDQNRWYPCYQYQQESINSICLSGPGTPKIPKGITAEAKVKYSFNFKWGGDLPPMSTITNPTDQPTYVVPNNFNETTSLQNPTTRPEHFLYSFDERRGQLTEKATKRLLKDWETKETSLLSTEYRFAEPTQTQAPQEDPSSEEEEESNLFERLLRQRTKQLQLKRRIIQTLKDLQKLE | binds | –
3 | Ring 10 ORF1 delARM delCTD (residues 2-45 and 552-672 deleted) (other, also called Ring 10 delARM delCTD) MKIKRLNIVEWQPKSIRKCRIKGMLCLFQTTEDRLSYNFDMYEESIIPEKLPGGGGFSIKNISLYALYQEHIHAHNIFTHTNTDRPLARYTGCSLKFYQSKDIDYVVTYSTSLPLRSSMGMYNSMQPSIHLMQQNKLIVPSKQTQKRRKPYIKKHISPPTQMKSQWYFQHNIANIPLLMIRTTALTLDNYYIGSRQLSTNVTIHTLNTTYIQNRDWGDRNKTYYCQTLGTQRYFLYGTHSTAQNINDIKLQELIPLTNTQDYVQGFDWTEKDKHNITTYKEFLTKGAGNPFHAEWITAQNPVIHTANSPTQIEQIYTASTTTFQNKKLTDLPTPGYIFITPTVSLRYNPYKDLAERNKCYFVRSKINAHGWDPEQHQELINSDLPQWLLLFGYPDYIKRTQNFALVDTNYILVDHCPYTNPEKTPFIPLSTSFIEGRSPYSPSDTHEPDEEDQNRWYPCYQYQQESINSICLSGPGTPKIPKGITAEAKVKYSFNFKWGGDLPPMST | binds | –
4 | Ring 2 ORF1 fused to an N-terminal HIS6-tag (HIS-ORF1) (other, also called Ring 2 HIS-ORF1; not shown: N-terminal HIS6-tag) MPYYYRRRRYNYRRPRWYGRGWIRRPFRRRFRRKRRVRPTYTTIPLKQWQPPYKRTCYIKGQDCLIYYSNLRLGMNSTMYEKSIVPVHWPGGGSFSVSMLTLDALYDIHKLCRNWWTSTNQDLPLVRYKGCKITFYQSTFTDYIVRIHTELPANSNKLTYPNTHPLMMMMSKYKHIIPSRQTRRKKKPYTKIFVKPPPQFENKWYFATDLYKIPLLQIHCTACNLQNPFVKPDKLSNNVTLWSLNTISIQNRNMSVDQGQSWPFKILGTQSFYFYFYTGANLPGDTTQIPVADLLPLTNPRINRPGQSLNEAKITDHITFTEYKNKFTNYWGNPFNKHIQEHLDMILYSLKSPEAIKNEWTTENMKWNQLNNAGTMALTPFNEPIFTQIQYNPDRDTGEDTQLYLLSNATGTGWDPPGIPELILEGFPLWLIYWGFADFQKNLKKVTNIDTNYMLVAKTKFTQKPGTFYLVILNDTFVEGNSPYEKQPLPEDNIKWYPQVQYQLEAQNKLLQTGPFTPNIQGQLSDNISMFYKFYFKWGGSPPKAINVENPAHQIQYPIPRNEHETTSLQSPGEAPESILYSFDYRHGNYTTTALSRISQDWALKDTVSKITEPDRQQLLKQALECLQISEETQEKKEKEVQQLISNLRQQQQLYRERIISLLKDQ | binds | –
5 | untagged Ring2 ORF1 (other, also called LY2 ORF1) MPYYYRRRRYNYRRPRWYGRGWIRRPFRRRFRRKRRVRPTYTTIPLKQWQPPYKRTCYIKGQDCLIYYSNLRLGMNSTMYEKSIVPVHWPGGGSFSVSMLTLDALYDIHKLCRNWWTSTNQDLPLVRYKGCKITFYQSTFTDYIVRIHTELPANSNKLTYPNTHPLMMMMSKYKHIIPSRQTRRKKKPYTKIFVKPPPQFENKWYFATDLYKIPLLQIHCTACNLQNPFVKPDKLSNNVTLWSLNTISIQNRNMSVDQGQSWPFKILGTQSFYFYFYTGANLPGDTTQIPVADLLPLTNPRINRPGQSLNEAKITDHITFTEYKNKFTNYWGNPFNKHIQEHLDMILYSLKSPEAIKNEWTTENMKWNQLNNAGTMALTPFNEPIFTQIQYNPDRDTGEDTQLYLLSNATGTGWDPPGIPELILEGFPLWLIYWGFADFQKNLKKVTNIDTNYMLVAKTKFTQKPGTFYLVILNDTFVEGNSPYEKQPLPEDNIKWYPQVQYQLEAQNKLLQTGPFTPNIQGQLSDNISMFYKFYFKWGGSPPKAINVENPAHQIQYPIPRNEHETTSLQSPGEAPESILYSFDYRHGNYTTTALSRISQDWALKDTVSKITEPDRQQLLKQALECLQISEETQEKKEKEVQQLISNLRQQQQLYRERIISLLKDQ | – | binding result [2]: binds
6 | Ring2 ORF1 with a deletion of the C-terminus amino acids 611-666 (pRTx-2652), Ring2 AnelloVLP (other, also called Ring2 delCterm (Δ611-666) (7047); Ring2 AnelloVLP 2652) MPYYYRRRRYNYRRPRWYGRGWIRRPFRRRFRRKRRVRPTYTTIPLKQWQPPYKRTCYIKGQDCLIYYSNLRLGMNSTMYEKSIVPVHWPGGGSFSVSMLTLDALYDIHKLCRNWWTSTNQDLPLVRYKGCKITFYQSTFTDYIVRIHTELPANSNKLTYPNTHPLMMMMSKYKHIIPSRQTRRKKKPYTKIFVKPPPQFENKWYFATDLYKIPLLQIHCTACNLQNPFVKPDKLSNNVTLWSLNTISIQNRNMSVDQGQSWPFKILGTQSFYFYFYTGANLPGDTTQIPVADLLPLTNPRINRPGQSLNEAKITDHITFTEYKNKFTNYWGNPFNKHIQEHLDMILYSLKSPEAIKNEWTTENMKWNQLNNAGTMALTPFNEPIFTQIQYNPDRDTGEDTQLYLLSNATGTGWDPPGIPELILEGFPLWLIYWGFADFQKNLKKVTNIDTNYMLVAKTKFTQKPGTFYLVILNDTFVEGNSPYEKQPLPEDNIKWYPQVQYQLEAQNKLLQTGPFTPNIQGQLSDNISMFYKFYFKWGGSPPKAINVENPAHQIQYPIPRNEHETTSLQSPGEAPESILYSFDYRHGNYTTTALSRISQDWALKDTVSK | – | binding result (self-assembly; EM): binds
